Results from article doi:10.1101/2024.03.20.585881 (bioRxiv, 2024).

B1: β-catenin (natural protein, human (endogenous in HEK293 and HeLa), UniProt P35222 1-781, looked up)
chain: MATQADLMELDMAMEPDRKAAVSHWQQQSYLDSGIHSGATTTAPSLSGKGNPEEEDVDTSQVLYEWEQGFSQSFTQEQVADIDGQYAMTRAQRVRAAMFPETLDEGMQIPSTQFDAAHPTNVQRLAEPSQMLKHAVVNLINYQDDAELATRAIPELTKLLNDEDQVVVNKAAVMVHQLSKKEASRHAIMRSPQMVSAIVRTMQNTNDVETARCTAGTLHNLSHHREGLLAIFKSGGIPALVKMLGSPVDSVLFYAITTLHNLLLHQEGAKMAVRLAGGLQKMVALLNKTNVKFLAITTDCLQILAYGNQESKLIILASGGPQALVNIMRTYTYEKLLWTTSRVLKVLSVCSSNKPAIVEAGGMQALGLHLTDPSQRLVQNCLWTLRNLSDAATKQEGMEGLLGTLVQLLGSDDINVVTCAAGILSNLTCNNYKNKMMVCQVGGIEALVRTVLRAGDREDITEPAICALRHLTSRHQEAEMAQNAVRLHYGLPVVVKLLHPPSHWPLIKATVGLIRNLALCPANHAPLREQGAIPRLVQLLVRAHQDTQRRTSMGGTQQQFVEGVRMEEIVEGCTGALHILARDVHNRIVIRGLNTIPLFVQLLYSPIENIQRVAAGVLCELAQDKEAAEAIEAEGATAPLTELLHSRNEGVATYAAAVLFRMSEDKPQDYKKRLSVELTSSLFRTEPMAWNETADLGLDIGAQGEPLGYRQDDPSYRSFHSGGYGQDALGMDPMMEHEMGGHHPGADYPVDGLPDLGHAQDLMDGLPPGDSNQLAWFDTDL
B2: α-catenin (natural protein, human (endogenous in HEK293 and HeLa), UniProt P35221 1-906, looked up)
chain: MTAVHAGNINFKWDPKSLEIRTLAVERLLEPLVTQVTTLVNTNSKGPSNKKRGRSKKAHVLAASVEQATENFLEKGDKIAKESQFLKEELVAAVEDVRKQGDLMKAAAGEFADDPCSSVKRGNMVRAARALLSAVTRLLILADMADVYKLLVQLKVVEDGILKLRNAGNEQDLGIQYKALKPEVDKLNIMAAKRQQELKDVGHRDQMAAARGILQKNVPILYTASQACLQHPDVAAYKANRDLIYKQLQQAVTGISNAAQATASDDASQHQGGGGGELAYALNNFDKQIIVDPLSFSEERFRPSLEERLESIISGAALMADSSCTRDDRRERIVAECNAVRQALQDLLSEYMGNAGRKERSDALNSAIDKMTKKTRDLRRQLRKAVMDHVSDSFLETNVPLLVLIEAAKNGNEKEVKEYAQVFREHANKLIEVANLACSISNNEEGVKLVRMSASQLEALCPQVINAALALAAKPQSKLAQENMDLFKEQWEKQVRVLTDAVDDITSIDDFLAVSENHILEDVNKCVIALQEKDVDGLDRTAGAIRGRAARVIHVVTSEMDNYEPGVYTEKVLEATKLLSNTVMPRFTEQVEAAVEALSSDPAQPMDENEFIDASRLVYDGIRDIRKAVLMIRTPEELDDSDFETEDFDVRSRTSVQTEDDQLIAGQSARAIMAQLPQEQKAKIAEQVASFQEEKSKLDAEVSKWDDSGNDIIVLAKQMCMIMMEMTDFTRGKGPLKNTSDVISAAKKIAEAGSRMDKLGRTIADHCPDSACKQDLLAYLQRIALYCHQLNICSKVKAEVQNLGGELVVSGVDSAMSLIQAAKNLMNAVVQTVKASYVASTKYQKSQGMASLNLPAVSWKMKAPEKKPLVKREKQDETQTKIKRASQKKHVNPVQALSEFKAMDSI

Experiments:
[1] = target: 3xFLAG-mScarlet-APC (human (endogenous in HEK293), UniProt P25054 1-2843); experiment: affinity purification with mass spectrometry
[2] = target: 3xFLAG-eGFP-Axin1 (UniProt O15169 1-862); experiment: affinity purification with mass spectrometry
3xFLAG-eGFP-Axin1, sequence (O15169 whole entry): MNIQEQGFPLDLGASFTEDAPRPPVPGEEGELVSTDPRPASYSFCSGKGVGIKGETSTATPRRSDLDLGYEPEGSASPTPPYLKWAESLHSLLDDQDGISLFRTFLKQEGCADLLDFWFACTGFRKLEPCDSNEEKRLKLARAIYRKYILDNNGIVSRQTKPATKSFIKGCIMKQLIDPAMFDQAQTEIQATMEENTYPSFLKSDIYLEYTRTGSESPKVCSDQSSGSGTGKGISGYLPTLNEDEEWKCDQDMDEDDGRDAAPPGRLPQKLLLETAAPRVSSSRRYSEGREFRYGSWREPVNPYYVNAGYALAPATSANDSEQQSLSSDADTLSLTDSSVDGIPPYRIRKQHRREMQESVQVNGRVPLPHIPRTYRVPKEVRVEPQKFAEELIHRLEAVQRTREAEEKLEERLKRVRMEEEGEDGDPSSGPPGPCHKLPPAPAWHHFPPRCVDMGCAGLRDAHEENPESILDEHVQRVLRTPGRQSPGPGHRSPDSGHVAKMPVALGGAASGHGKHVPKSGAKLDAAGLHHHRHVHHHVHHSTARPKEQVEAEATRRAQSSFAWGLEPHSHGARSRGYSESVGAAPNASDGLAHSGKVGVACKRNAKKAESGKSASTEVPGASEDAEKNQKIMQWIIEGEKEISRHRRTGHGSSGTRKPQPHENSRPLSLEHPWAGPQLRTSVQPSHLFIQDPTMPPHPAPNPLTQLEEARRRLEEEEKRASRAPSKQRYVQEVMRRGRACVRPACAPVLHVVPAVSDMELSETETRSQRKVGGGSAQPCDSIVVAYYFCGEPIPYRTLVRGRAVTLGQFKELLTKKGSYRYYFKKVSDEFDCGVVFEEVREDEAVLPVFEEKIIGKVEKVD

3xFLAG-mScarlet-APC, sequence (P25054 whole entry): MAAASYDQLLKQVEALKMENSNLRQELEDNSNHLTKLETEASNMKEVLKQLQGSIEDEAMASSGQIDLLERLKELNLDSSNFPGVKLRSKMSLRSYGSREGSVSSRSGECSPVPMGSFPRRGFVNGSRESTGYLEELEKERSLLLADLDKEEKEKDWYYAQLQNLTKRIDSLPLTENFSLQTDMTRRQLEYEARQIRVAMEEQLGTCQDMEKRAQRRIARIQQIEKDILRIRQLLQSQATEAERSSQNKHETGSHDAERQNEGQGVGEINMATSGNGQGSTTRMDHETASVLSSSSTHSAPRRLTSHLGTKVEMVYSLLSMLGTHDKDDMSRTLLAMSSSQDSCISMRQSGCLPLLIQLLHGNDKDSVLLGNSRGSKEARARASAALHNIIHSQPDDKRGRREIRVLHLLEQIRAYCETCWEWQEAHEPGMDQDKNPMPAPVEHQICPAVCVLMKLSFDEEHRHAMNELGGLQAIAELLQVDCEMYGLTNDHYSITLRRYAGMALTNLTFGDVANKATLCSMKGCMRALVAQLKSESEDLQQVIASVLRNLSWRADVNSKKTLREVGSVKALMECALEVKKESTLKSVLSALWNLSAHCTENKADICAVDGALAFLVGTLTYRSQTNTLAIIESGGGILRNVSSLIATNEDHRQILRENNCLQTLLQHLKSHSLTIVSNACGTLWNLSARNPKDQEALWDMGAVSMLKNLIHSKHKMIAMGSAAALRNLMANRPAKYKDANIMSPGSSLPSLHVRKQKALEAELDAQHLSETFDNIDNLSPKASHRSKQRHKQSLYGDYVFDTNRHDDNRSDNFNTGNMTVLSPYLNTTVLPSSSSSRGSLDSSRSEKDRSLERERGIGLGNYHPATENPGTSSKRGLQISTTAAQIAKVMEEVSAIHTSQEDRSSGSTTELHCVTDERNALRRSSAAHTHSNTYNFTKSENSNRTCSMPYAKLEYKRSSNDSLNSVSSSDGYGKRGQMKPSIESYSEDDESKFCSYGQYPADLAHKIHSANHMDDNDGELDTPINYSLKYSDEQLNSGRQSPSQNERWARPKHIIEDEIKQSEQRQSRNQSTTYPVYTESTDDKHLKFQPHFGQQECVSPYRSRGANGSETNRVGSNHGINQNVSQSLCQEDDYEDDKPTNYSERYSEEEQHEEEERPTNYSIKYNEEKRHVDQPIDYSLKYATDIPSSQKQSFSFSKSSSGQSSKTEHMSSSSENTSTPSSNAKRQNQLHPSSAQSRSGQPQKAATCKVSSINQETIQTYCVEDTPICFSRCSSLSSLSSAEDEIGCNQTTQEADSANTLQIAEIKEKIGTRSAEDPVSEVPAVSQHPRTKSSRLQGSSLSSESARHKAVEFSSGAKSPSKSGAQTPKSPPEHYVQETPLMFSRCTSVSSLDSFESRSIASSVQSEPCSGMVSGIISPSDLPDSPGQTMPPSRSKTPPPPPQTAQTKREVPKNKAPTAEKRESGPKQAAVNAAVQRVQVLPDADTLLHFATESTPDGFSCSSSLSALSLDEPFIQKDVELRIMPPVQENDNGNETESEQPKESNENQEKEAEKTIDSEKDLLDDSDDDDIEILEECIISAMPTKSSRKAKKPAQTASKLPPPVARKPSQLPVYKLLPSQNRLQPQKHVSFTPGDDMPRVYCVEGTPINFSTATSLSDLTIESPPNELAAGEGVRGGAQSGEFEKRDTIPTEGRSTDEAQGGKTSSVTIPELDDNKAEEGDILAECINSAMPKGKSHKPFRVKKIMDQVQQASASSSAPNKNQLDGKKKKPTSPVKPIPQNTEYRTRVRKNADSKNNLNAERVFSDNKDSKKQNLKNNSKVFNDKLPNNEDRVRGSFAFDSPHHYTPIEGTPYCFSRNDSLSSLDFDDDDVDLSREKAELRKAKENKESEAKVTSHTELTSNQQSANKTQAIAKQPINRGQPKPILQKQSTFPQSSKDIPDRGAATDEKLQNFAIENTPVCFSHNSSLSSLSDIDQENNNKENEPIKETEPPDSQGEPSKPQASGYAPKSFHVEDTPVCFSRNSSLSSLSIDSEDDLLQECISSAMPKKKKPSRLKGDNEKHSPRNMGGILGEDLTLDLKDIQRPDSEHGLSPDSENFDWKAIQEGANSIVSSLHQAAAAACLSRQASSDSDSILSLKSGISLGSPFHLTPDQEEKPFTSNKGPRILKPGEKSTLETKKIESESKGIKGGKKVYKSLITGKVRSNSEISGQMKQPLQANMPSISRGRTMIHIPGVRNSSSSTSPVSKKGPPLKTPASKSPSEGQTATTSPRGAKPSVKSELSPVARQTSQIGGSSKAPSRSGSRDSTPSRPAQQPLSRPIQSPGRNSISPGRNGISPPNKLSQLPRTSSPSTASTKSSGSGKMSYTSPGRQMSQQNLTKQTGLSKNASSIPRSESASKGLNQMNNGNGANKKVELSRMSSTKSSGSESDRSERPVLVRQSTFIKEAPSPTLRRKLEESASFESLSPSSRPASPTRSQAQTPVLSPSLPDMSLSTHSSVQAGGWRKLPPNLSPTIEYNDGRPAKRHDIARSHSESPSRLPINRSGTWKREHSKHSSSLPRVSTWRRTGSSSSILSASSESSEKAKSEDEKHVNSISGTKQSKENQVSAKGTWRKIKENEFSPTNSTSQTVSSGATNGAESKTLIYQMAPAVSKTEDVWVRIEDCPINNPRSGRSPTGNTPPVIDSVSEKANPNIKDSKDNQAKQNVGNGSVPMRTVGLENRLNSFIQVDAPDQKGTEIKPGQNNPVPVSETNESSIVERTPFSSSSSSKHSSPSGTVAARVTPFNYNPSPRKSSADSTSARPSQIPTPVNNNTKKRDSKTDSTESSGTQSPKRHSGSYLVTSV

Binder | fold reduction of the interaction after puromycin [1] [fold] | fold decrease in binding after puromycin [2] [fold]
B1 | ~4 | ~10
B2 | – | ~10
